Results from the supplement of paper PMC7877785.
± gives the uncertainty stated by the source.

Test: self-splicing fitness, log relative to wild type (ln ratio); higher = more splicing; Tetrahymena group I intron in knt gene, E. coli kanamycin selection, DiMSum; sequences stand for … in CUCUCU…GGAGGGAAAAGUUAUCAGGCAUGCACCUGGUAGCUAGUCUUUAAACCAAUAGAUUGCAUCGGUUUAAAAGGCAAGACCGUCAAAUUGCGGGAAAGGGGUCAACAGCCGUUCAGUACCAAGUCUCAGGGGAAACUUUGAGAUGGCCUUGCAAAGGGUAUGGUAAUAAGCUGACGGACAUGGUCCUAACCACGCAGCCAAGUCCUAAGUCAACAGAUCUUCUGUUGAUAUGGAUGCAGUUCACAGACUAAAUGUCGGUCGGGGAAGAUGUAUUCUUCUCAUAAGAUAUAGUCGGACCUCUCCUUAAUGGGAGCUAGCGGAUGAAGUGAUGCAACACUGGAGCCGCUGGGAACUAAUUUGUAUGCGAAAGUAUAUUGAUUAGUUUUGGAGUACUCGUGGUCG
In short: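 Six replicate transformations of E. coli BL21(DE3) with a pET-22b(+) library were grown overnight at 37°C or 30°C. The library randomised all eight P1ex-region intron nucleotides, the intron lying in the knt kanamycin-resistance gene, and plates were LB agar with or without 25 μg/mL kanamycin plus 100 μg/mL carbenicillin, 50 μM IPTG and 0.2% rhamnose. Pooled colonies were amplicon-sequenced on an Illumina HiSeq 2500, and fitness is the DiMSum error-weighted combination of wild-type-normalised replicate fold changes, kanamycin versus none.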

| Sequence | self-splicing fitness (ln) (30 °C) | self-splicing fitness (ln) (37 °C) |
| --- | --- | --- |
| GAUAAGCAAUAUUACGCGCC | -1.76 ± 0.17 | -1.31 ± 0.26 |
| UCGGAGCAAUAUUACGUUUA | -2.32 ± 0.29 | -2.35 ± 0.42 |
| AAGGAGCAAUAUUACGGCCG | -1.99 ± 0.45 |  |
| GUAUAGCAAUAUUACGUCCU | -1.56 ± 0.15 | -0.00945 ± 0.19 |
| AGUAAGCAAUAUUACGGUAG | -3.89 ± 0.23 | -3.44 ± 0.29 |
| AUUCAGCAAUAUUACGCUUG | -0.971 ± 0.083 | -0.265 ± 0.093 |
| CGAUAGCAAUAUUACGACGA | -1.5 ± 0.17 | -0.547 ± 0.15 |
| CUUCAGCAAUAUUACGACCU | -2.42 ± 0.21 | -1.7 ± 0.27 |
| CUCUAGCAAUAUUACGUCUU | -2.57 ± 0.12 | -3.16 ± 0.16 |
| ACCUAGCAAUAUUACGAUAC | -3.47 ± 0.25 | -1.65 ± 0.2 |
| UAUCAGCAAUAUUACGGUUG | -0.952 ± 0.068 | -0.113 ± 0.1 |
| GUUCAGCAAUAUUACGCCCU | -0.106 ± 0.16 | 0.232 ± 0.19 |
| GGAGAGCAAUAUUACGUCGU | -2.89 ± 0.21 | -2.5 ± 0.27 |
| GAGGAGCAAUAUUACGAAAC | -2.22 ± 0.34 | -1.87 ± 0.33 |
| UUCCAGCAAUAUUACGAGCU | -3.64 ± 0.23 | -2.71 ± 0.27 |
| GGGUAGCAAUAUUACGUUCG | -0.742 ± 0.065 | 0.339 ± 0.086 |
| GUCAAGCAAUAUUACGUAGU | -1.21 ± 0.068 | -0.468 ± 0.1 |
| GACUAGCAAUAUUACGCAAU | -1.34 ± 0.19 | -1.38 ± 0.17 |
| GUACAGCAAUAUUACGUAAA | -2.87 ± 0.14 | -1.44 ± 0.16 |
| AGAUAGCAAUAUUACGACAA | -0.741 ± 0.072 | -0.217 ± 0.077 |
| UUUCAGCAAUAUUACGACCA | -0.495 ± 0.19 | -1.36 ± 0.23 |
| UUGGAGCAAUAUUACGACGA | -0.765 ± 0.14 | 0.309 ± 0.21 |
| CCUAAGCAAUAUUACGGUUA | -3.71 ± 0.16 | -2.67 ± 0.14 |
| GACUAGCAAUAUUACGGCAC | -0.648 ± 0.14 | 0.581 ± 0.16 |

| Sequence | self-splicing fitness (ln) (30 °C) | self-splicing fitness (ln) (37 °C) |
| --- | --- | --- |
| UAAGAGCAAUAUUACGCGCA | -1.81 ± 0.2 | -1.16 ± 0.3 |
| CCUAAGCAAUAUUACGGAUA | -4.31 ± 0.26 | -4.12 ± 0.31 |
| GUCUAGCAAUAUUACGAUUU | -0.743 ± 0.056 | 0.36 ± 0.064 |
| CUACAGCAAUAUUACGGUAG | -3.39 ± 0.15 | -3.06 ± 0.23 |
| UGCGAGCAAUAUUACGAUUU | -3.11 ± 0.37 | -0.802 ± 0.16 |
| AUGAAGCAAUAUUACGCCCA | 0.226 ± 0.22 | 0.0745 ± 0.25 |
| UAAUAGCAAUAUUACGCAUA | -1.13 ± 0.18 | -0.681 ± 0.15 |
| GUAUAGCAAUAUUACGUGCG | -1.4 ± 0.12 | -0.66 ± 0.15 |
| AUAUAGCAAUAUUACGUAGA | -2.19 ± 0.094 | -1.87 ± 0.15 |
| CCUUAGCAAUAUUACGCACU | -2.46 ± 0.41 | -1.29 ± 0.22 |
| GUUAAGCAAUAUUACGAGGA | -1.5 ± 0.23 | -1.15 ± 0.39 |
| CUUUAGCAAUAUUACGCGUA | -3.14 ± 0.26 | -3.28 ± 0.35 |
| CCAUAGCAAUAUUACGUUGU | -4.79 ± 0.41 | -2.66 ± 0.19 |
| ACGGAGCAAUAUUACGGGCG | -2.12 ± 0.19 | -0.224 ± 0.19 |
| UCGUAGCAAUAUUACGAGUU | -3.76 ± 0.25 | -2.5 ± 0.2 |
| CGACAGCAAUAUUACGACAA | -2.08 ± 0.13 | -1.27 ± 0.13 |
| GCUGAGCAAUAUUACGGUGU | -2.14 ± 0.077 | -1.8 ± 0.091 |
| AUAGAGCAAUAUUACGAAGA | -1.28 ± 0.38 |  |
| UAAGAGCAAUAUUACGUCAC | -2.67 ± 0.3 | -2.04 ± 0.34 |
| GGUAAGCAAUAUUACGACGA | -0.849 ± 0.098 | 0.225 ± 0.098 |
| ACCUAGCAAUAUUACGACGG | -1.3 ± 0.089 | -0.541 ± 0.14 |
| UACCAGCAAUAUUACGUCAA | -1.19 ± 0.079 | -0.33 ± 0.086 |
| AGCUAGCAAUAUUACGGCUU | -3.43 ± 0.21 | -2.62 ± 0.23 |
| AAGCAGCAAUAUUACGGAAA | -2.74 ± 0.12 | -2.26 ± 0.14 |

| Sequence | self-splicing fitness (ln) (30 °C) | self-splicing fitness (ln) (37 °C) |
| --- | --- | --- |
| AAAUAGCAAUAUUACGCUGG | -1.94 ± 0.13 | -1.15 ± 0.17 |
| GAGGAGCAAUAUUACGUAAC | -1.59 ± 0.19 | -2.72 ± 0.41 |
| GAAAAGCAAUAUUACGGAUU | -2.03 ± 0.09 | -1.03 ± 0.11 |
| UUGAAGCAAUAUUACGCGAC | -2.19 ± 0.18 | -1.51 ± 0.29 |
| CCUCAGCAAUAUUACGGUUC | -3.33 ± 0.14 | -3.16 ± 0.27 |
| AACUAGCAAUAUUACGGCUG | -1.02 ± 0.098 | -0.0943 ± 0.15 |
| CAACAGCAAUAUUACGGUUG | -3.26 ± 0.1 | -2.27 ± 0.12 |
| ACCAAGCAAUAUUACGCAAG | -2.05 ± 0.072 | -2.12 ± 0.12 |
| UUCGAGCAAUAUUACGAAAA | -2.97 ± 0.31 | -1.28 ± 0.18 |
| CUUAAGCAAUAUUACGGUUG | -1.95 ± 0.14 | -1.3 ± 0.14 |
| UCUCAGCAAUAUUACGGGGA | -2.92 ± 0.21 | -1.98 ± 0.22 |
| AAGCAGCAAUAUUACGCGCA | -1.73 ± 0.14 | -0.501 ± 0.2 |
| UGGGAGCAAUAUUACGAGUG | -2.24 ± 0.31 | -0.927 ± 0.28 |
| AGGGAGCAAUAUUACGCGUU |  | -2.46 ± 0.44 |
| GGUAAGCAAUAUUACGGGCA | -0.438 ± 0.082 | 0.103 ± 0.1 |
| GGCAAGCAAUAUUACGCGUA | -0.585 ± 0.065 | -0.212 ± 0.076 |
| CGUGAGCAAUAUUACGGUUA | -3.15 ± 0.33 | -2.98 ± 0.29 |
| CGACAGCAAUAUUACGCAUG | -1.37 ± 0.075 | -0.351 ± 0.074 |
| CACAAGCAAUAUUACGGCGA | -1.3 ± 0.092 | -0.406 ± 0.087 |
| GAGAAGCAAUAUUACGGGCA | -0.782 ± 0.1 | -0.441 ± 0.087 |
| CUCAAGCAAUAUUACGUUCC | -3.08 ± 0.32 | -2.32 ± 0.26 |
| UAAAAGCAAUAUUACGACUU | -0.473 ± 0.098 | -0.07 ± 0.15 |
| ACCGAGCAAUAUUACGGGGU | -3.7 ± 0.17 | -2.46 ± 0.17 |
| CUGCAGCAAUAUUACGUACU | -2.89 ± 0.2 | -1.69 ± 0.21 |

| Sequence | self-splicing fitness (ln) (30 °C) | self-splicing fitness (ln) (37 °C) |
| --- | --- | --- |
| CGUCAGCAAUAUUACGGGGA | -2.96 ± 0.16 | -1.91 ± 0.14 |
| UAUUAGCAAUAUUACGGCCC | -1.78 ± 0.5 |  |
| AUCUAGCAAUAUUACGCCUC | -1.62 ± 0.19 | -1.33 ± 0.34 |
| AAGUAGCAAUAUUACGACAU | 0.0523 ± 0.012 | -0.0429 ± 0.033 |
| GGCCAGCAAUAUUACGAAUG | -4.74 ± 0.39 | -2.17 ± 0.22 |
| UGAUAGCAAUAUUACGUAAA | -3.07 ± 0.16 | -1.64 ± 0.14 |
| CUUUAGCAAUAUUACGUUAU | -3.64 ± 0.23 | -1.79 ± 0.19 |
| AUUUAGCAAUAUUACGACAU | 0.163 ± 0.014 | 0.28 ± 0.033 |
| GGCAAGCAAUAUUACGCGAC | -3.25 ± 0.23 | -2.23 ± 0.27 |
| CACUAGCAAUAUUACGGUGU | -3.65 ± 0.15 | -2.95 ± 0.21 |
| ACGAAGCAAUAUUACGGUUG | -2.29 ± 0.07 | -1.31 ± 0.081 |
| UCUUAGCAAUAUUACGGCCU | -3.85 ± 0.46 |  |
| AACGAGCAAUAUUACGUGCA | -2.58 ± 0.13 | -2.01 ± 0.18 |
| UAUUAGCAAUAUUACGCACG | -0.859 ± 0.16 | 0.0642 ± 0.17 |
| UCAUAGCAAUAUUACGCUAC | -2.17 ± 0.21 | -3.42 ± 0.29 |
| UUAUAGCAAUAUUACGAUUA | -0.871 ± 0.11 | -0.272 ± 0.13 |
| UGCCAGCAAUAUUACGUGAA | -1.73 ± 0.09 | -0.422 ± 0.1 |
| CUACAGCAAUAUUACGGUCA | -3.37 ± 0.28 | -1.96 ± 0.24 |
| GCGCAGCAAUAUUACGUAGC | -1.95 ± 0.11 | -0.709 ± 0.12 |
| UCGCAGCAAUAUUACGGAGA | -2.75 ± 0.13 | -1.02 ± 0.1 |
| GGGUAGCAAUAUUACGGCAC | -0.322 ± 0.14 | -0.0485 ± 0.18 |
| UACCAGCAAUAUUACGAAAC | -2.69 ± 0.23 | -2.14 ± 0.27 |
| CUUCAGCAAUAUUACGCUCG | -2.42 ± 0.15 | -0.933 ± 0.26 |
| AAUAAGCAAUAUUACGUAUG | -2.2 ± 0.11 | -0.966 ± 0.12 |
